Test results taken from article PMC11906848, “Rational engineering of a thermostable α-oxoamine synthase biocatalyst expands the substrate scope and synthetic applicability” (Communications Chemistry, 2025).
Substitutions are numbered along the chain they refer to. Numbers in names are those of the source.

How the values were obtained:
ThAOS [1] = molecular target: T1, ThAOS (Thermus thermophilus, UniProt Q5SHZ8); test: UV-vis spectroscopy of purified holoenzyme; type: binding; conditions: covalent; internal aldimine
T1 construct: gene TTHA1582; recombinant in E. coli BL21(DE3), pET28a, TEV-cleavable N-terminal His6 tag; homodimer; active site includes V79 of the other monomer
Target sequence in this assay (Q5SHZ8 whole entry): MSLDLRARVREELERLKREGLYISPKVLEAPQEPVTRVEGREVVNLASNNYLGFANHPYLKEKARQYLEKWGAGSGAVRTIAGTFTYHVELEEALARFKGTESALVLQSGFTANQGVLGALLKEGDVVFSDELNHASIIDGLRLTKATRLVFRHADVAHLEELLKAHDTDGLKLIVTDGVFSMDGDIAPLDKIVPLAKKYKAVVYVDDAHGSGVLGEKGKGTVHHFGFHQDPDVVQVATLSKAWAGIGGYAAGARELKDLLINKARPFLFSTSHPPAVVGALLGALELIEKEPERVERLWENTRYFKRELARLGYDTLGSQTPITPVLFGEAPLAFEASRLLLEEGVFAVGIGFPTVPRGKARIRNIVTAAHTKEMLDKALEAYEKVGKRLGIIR

ThAOS [2] = molecular target: T1, ThAOS; test: DTNB assay of CoASH release; type: biochemical; conditions: 16 mM L-Aba; 1 mM acetyl-CoA; HEPES pH 7.5; 50 °C
Target sequence in this assay (Q5SHZ8 whole entry): as above

ThAOS [3] = molecular target: T1, ThAOS; test: X-ray crystal structure (crystal soak), […] Å; UV-vis; type: binding; conditions: covalent PLP:L-Pen thiazolidine adduct; carboxylate chelated by Arg366
ThAOS [4] = molecular target: T1, ThAOS; test: UV-vis titration of PLP spectrum; type: binding; conditions: 0-16 mM; external aldimine and some quinonoid formation
Target sequence in this assay (Q5SHZ8 whole entry): as above

[5] = substrate: CC[C@H](N)C(=O)O; test: DTNB assay of CoASH release; type: biochemical, Thermus thermophilus; conditions: acetyl-CoA co-substrate, HEPES pH 7.5, 50 °C
Text: (§1) DTNB assay of CoASH release on ThAOS | catalytic efficiency (kcat/KM) for all four original amino acid substrates was improved substantially

[6] = substrate: NCC(=O)O; test: DTNB assay of CoASH release; type: biochemical, Thermus thermophilus; conditions: acetyl-CoA co-substrate, HEPES pH 7.5, 50 °C
Text: as §1

purified protein [7] = substrate: N[C@@H](CO)C(=O)O; test: purified protein; conditions: acetyl-CoA co-substrate, HEPES pH 7.5, 50 °C
purified protein [8] = substrate: C[C@H](N)C(=O)O; test: purified protein; conditions: acetyl-CoA co-substrate, HEPES pH 7.5, 50 °C
[9] = substrate: CC[C@H](N)C(=O)O; test: DTNB assay of CoASH release; type: biochemical, Thermus thermophilus; conditions: acetyl-CoA co-substrate, HEPES pH 7.5, 50 °C; remark: listed apart in the source
[10] = substrate: NCC(=O)O; test: DTNB assay of CoASH release; type: biochemical, Thermus thermophilus; conditions: acetyl-CoA co-substrate, HEPES pH 7.5, 50 °C; remark: listed apart in the source

Molecule: Cc1ncc(COP(=O)(O)O)c(C=O)c1O [PLP, pyridoxal 5’-phosphate]
- UV-vis spectroscopy of purified holoenzyme (ThAOS [1]): corresponding to the tautomeric forms of the PLP-bound internal aldimines

Molecule: CC[C@H](N)C(=O)O [L-Aba]
- DTNB assay of CoASH release (ThAOS [2]): original set of four amino acid substrates (L-Aba, L-Ala, Gly and L-Ser)

Molecule: CC(C)(S)[C@H](N)C(=O)O [L-Pen, L-penicillamine]
- X-ray crystal structure (crystal soak), 1.5 Å; UV-vis (ThAOS [3]): The structure of ThAOS V79A PLP:L-Pen complex (PDB: 8S1Y)

Molecule: C[C@H](N)C(=O)O [L-Ala]
- UV-vis titration of PLP spectrum (ThAOS [4]): L-Ala binding leads to a small amount of PLP: L-Ala quinonoid formation

B1: ThAOS (Thermus thermophilus HB8; V78A) (protein)
chain: MSLDLRARVREELERLKREGLYISPKVLEAPQEPVTRVEGREVVNLASNNYLGFANHPYLKEKARQYLEKWGAGSGAARTIAGTFTYHVELEEALARFKGTESALVLQSGFTANQGVLGALLKEGDVVFSDELNHASIIDGLRLTKATRLVFRHADVAHLEELLKAHDTDGLKLIVTDGVFSMDGDIAPLDKIVPLAKKYKAVVYVDDAHGSGVLGEKGKGTVHHFGFHQDPDVVQVATLSKAWAGIGGYAAGARELKDLLINKARPFLFSTSHPPAVVGALLGALELIEKEPERVERLWENTRYFKRELARLGYDTLGSQTPITPVLFGEAPLAFEASRLLLEEGVFAVGIGFPTVPRGKARIRNIVTAAHTKEMLDKALEAYEKVGKRLGIIR
notes: recombinant in E. coli BL21(DE3), pET28a, TEV-cleavable N-terminal His6 tag; homodimer; active site includes V79 of the other monomer
- Km [5]: 3120 ± 350 µM
- kcat [5]: 2.25 ± 0.08 s⁻¹
- Km [6]: 8360 ± 1730 µM
- kcat [6]: 3.89 ± 0.32 s⁻¹
- Km (purified protein [7]): 2520 ± 300 µM
- kcat (purified protein [7]): 3.81 ± 0.13 s⁻¹
- Km (purified protein [8]): 1590 ± 250 µM
- kcat (purified protein [8]): 1.23 ± 0.05 s⁻¹

B2: ThAOS (Thermus thermophilus HB8; V78G) (protein)
chain: B1 chain with A78G
notes: as for B1
- Km [9]: 830 ± 150 µM
- kcat [9]: 1.09 ± 0.04 s⁻¹
- Km [10]: 9520 ± 1910 µM
- kcat [10]: 5.12 ± 0.43 s⁻¹
- Km (purified protein [7]): 4280 ± 960 µM
- kcat (purified protein [7]): 5.74 ± 0.43 s⁻¹
- Km (purified protein [8]): 2460 ± 50 µM
- kcat (purified protein [8]): 2.39 ± 0.15 s⁻¹
